Patent publication US20180369425A1, “LINKED AND OTHER pH-TRIGGERED COMPOUNDS” (priority 2017, published 2018)
Residues, ends and D or L forms follow the SMILES beside them. *: point of attachment. X1 = CC1(C)C(/C=C/C=C/C=C/C=C2/N(CCCCCC(=O)NCCN3C(=O)CC(*)C3=O)c3ccc4ccccc4c3C2(C)C)=[N+](CCCCS(=O)(=O)[O-])c2ccc3ccccc3c21

Assays:
[1] = tested on: 4T1 tumor; assay: Ex vivo NIRF imaging of organs (biodistribution and kinetics of ICG-pHLIP); type: in vivo, mouse; conditions: for Fluorescence intensity, Muscle / Fluorescence intensity, Pancreas / Fluorescence intensity, S. Intest. / Fluorescence intensity, Skin / Fluorescence intensity, Spleen / Fluorescence intensity, Stomach / Fluorescence intensity, Tumor / Fluorescence intensity, Bone / Fluorescence intensity, Brain / Fluorescence intensity, Heart / Fluorescence intensity, Kidneys / Fluorescence intensity, L. Intest. / Fluorescence intensity, Liver / Fluorescence intensity, Lungs: mean ± St. D., 5 animals
Procedure: BALB/cAcNHsd mice ranging in age from 5 to 6 weeks obtained from Envigo RMS Inc were used in the study. Mouse mammary 4T1 cancer cells were subcutaneously implanted in the right flank (8×10^5 cells/0.1 mL/flank) of adult female mice. Triple negative 4T1 tumor model closely mimics stage IV of human breast cancer. When tumors reached 5-6 mm in diameter, single tail vein injections of 2.5 nmol (or 0.5 mg/kg) of ICG-pHLIP in sterile PBS with 5% DMSO or 5% Ethanol (volume of the injection was 100 μl) were performed. The whole body and ex vivo imaging was performed using a Stryker 1588 AIM clinical imaging system with L10 AIM Light Source, 1588 AIM Camera using a 10 mm or 5 mm scope.
Animals were euthanized at time points: 5 min, 1 hr, 2 hrs, 4 hrs, 6 hrs, 16 hrs, 26 hrs and 48 hrs. […] 100 μl of blood was collected immediately after euthanasia and mixed with 12.5 μl of citrate-dextrose anticoagulant solution (kept at 4° C.), and necropsy was performed. Tumor, muscles, skin, heart, lungs, liver, spleen, kidneys, brain, pancreas, bone, stomach, small and large intestines were collected, imaged immediately after collection, weighed, and fast frozen in liquid nitrogen.
The ex vivo imaging of organs was performed using a Stryker 1588 AIM clinical imaging system with L10 AIM Light Source, 1588 AIM Camera using a 10 mm scope. The lens was spaced 4.3 cm away from the surface of the organs within an enclosed (light protected) area. The NIRF imaging of each organ was performed at three different laser intensities set on a hexadecimal scale as 0B-22 (low), 12-5C (medium), and 20-3A (high). The digital images of organs were processed using program written in Python to determine the average level of intensity recorded in the green channel. Since organs were imaged in the dark on black mats, the background signal was determined by introducing an intensity threshold. All the pixels with intensity from the green channel above the set threshold were counted and the average green intensity per pixel was calculated. Thus, the mean intensity per organ (Table 17a) and averaged over organs from 5 animals (Table 17b) was calculated.

[2] = tested on: Human mammary epithelial cells (HMEpC); assay: Cytotoxicity of ICG-pHLIP; type: cell-based; conditions: 0.125 to 16 μM, 48 and 72 hours
Procedure: Human mammary epithelial cells (HMEpC) were acquired from Cell Applications Inc, and authenticated, and stored according to supplier's instructions. Cells were cultured in mammary epithelial cell growth medium provided by Cell Applications Inc. HMEpC cells were loaded in the wells of 96-well plates (˜6,000 cells per well) and incubated overnight. The increasing amounts of ICG-pHLIP dissolved in cell growth medium were added to cells to have the following final concentration of ICG-pHLIP with cells: 0.125, 0.25, 0.5, 1, 2, 4, 8 and 16 μM. After 48 and 72 hours of incubation, a colorimetric reagent (CellTiter 96 AQueous One Solution Assay, Promega) was added for 1 hour followed by measuring absorbance at 490 nm to assess cell viability. All samples were prepared in triplicate and each experiment was repeated several times.

CC(C)C[C@H](NC(=O)[C@H](Cc1ccc(O)cc1)NC(=O)[C@H](C)NC(=O)[C@H](CCCNC(=N)N)NC(=O)[C@H](Cc1c[nH]c2ccccc12)NC(=O)[C@@H]1CCCN1C(=O)[C@H](CC(N)=O)NC(=O)[C@H](CCC(N)=O)NC(=O)[C@H](CC(=O)O)NC(=O)[C@H](CC(=O)O)NC(=O)[C@H](CSC1CC(=O)N(CCNC(=O)CCCCCN2/C(=C/C=C/C=C/C=C/C3=[N+](CCCCS(=O)(=O)[O-])c4ccc5ccccc5c4C3(C)C)C(C)(C)c3c2ccc2ccccc32)C1=O)NC(=O)[C@H](C)N)C(=O)N[C@@H](CC(=O)O)C(=O)N[C@@H](CC(C)C)C(=O)N[C@@H](CC(C)C)C(=O)N[C@@H](Cc1ccccc1)C(=O)N1CCC[C@H]1C(=O)N[C@H](C(=O)N[C@@H](CC(=O)O)C(=O)N[C@H](C(=O)N[C@@H](CC(C)C)C(=O)N[C@@H](CC(C)C)C(=O)N[C@@H](CC(C)C)C(=O)N[C@@H](CC(=O)O)C(=O)N[C@@H](CC(C)C)C(=O)N[C@@H](CC(C)C)C(=O)N[C@@H](Cc1c[nH]c2ccccc12)C(=O)N[C@@H](C)C(=O)O)[C@@H](C)O)[C@@H](C)O (stereo partly drawn) [ICG-pHLIP] (H-AC(X1)DDQNPWRAYLDLLFPTDTLLLDLLWA-OH)
Fluorescence intensity, Muscle ([1]; 4 hours p.i.): 26.2 ± 24.6 a.u. | Fluorescence intensity, Pancreas ([1]; 4 hours p.i.): 92.0 ± 2.5 a.u. | Fluorescence intensity, S. Intest. ([1]; 4 hours p.i.): 64.9 ± 16.3 a.u. | Fluorescence intensity, Skin ([1]; 4 hours p.i.): 48.2 ± 11.6 a.u. | Fluorescence intensity, Spleen ([1]; 4 hours p.i.): 150.9 ± 11.4 a.u. | Fluorescence intensity, Stomach ([1]; 4 hours p.i.): 108.4 ± 6.5 a.u. | Fluorescence intensity, Tumor ([1]; 4 hours p.i.): 211.2 ± 15.7 a.u. | Fluorescence intensity, Bone ([1]; 6 hours p.i.): 66.7 ± 16.0 a.u. | Fluorescence intensity, Brain ([1]; 6 hours p.i.): 55.3 ± 11.0 a.u. | Fluorescence intensity, Heart ([1]; 6 hours p.i.): 163.0 ± 8.2 a.u. | Fluorescence intensity, Kidneys ([1]; 6 hours p.i.): 174.0 ± 5.0 a.u. | Fluorescence intensity, L. Intest. ([1]; 6 hours p.i.): 27.1 ± 15.6 a.u. | Fluorescence intensity, Liver ([1]; 6 hours p.i.): 527.1 ± 44.4 a.u. | Fluorescence intensity, Lungs ([1]; 6 hours p.i.): 156.8 ± 15.9 a.u. | Fluorescence intensity, Muscle ([1]; 6 hours p.i.): 0.0 ± 0.0 a.u. | Fluorescence intensity, Pancreas ([1]; 6 hours p.i.): 82.2 ± 15.3 a.u. | Fluorescence intensity, S. Intest. ([1]; 6 hours p.i.): 54.2 ± 11.6 a.u. | Fluorescence intensity, Skin ([1]; 6 hours p.i.): 47.1 ± 13.6 a.u. | Fluorescence intensity, Spleen ([1]; 6 hours p.i.): 148.1 ± 13.4 a.u. | Fluorescence intensity, Stomach ([1]; 6 hours p.i.): 126.8 ± 9.9 a.u. | Fluorescence intensity, Tumor ([1]; 6 hours p.i.): 198.6 ± 33.0 a.u. | Fluorescence intensity, Bone ([1]; 16 hours p.i.): 66.2 ± 8.5 a.u. | Fluorescence intensity, Brain ([1]; 16 hours p.i.): 35.3 ± 1.8 a.u. | Fluorescence intensity, Heart ([1]; 16 hours p.i.): 129.2 ± 15.7 a.u. | Fluorescence intensity, Kidneys ([1]; 16 hours p.i.): 170.6 ± 12.8 a.u. | Fluorescence intensity, L. Intest. ([1]; 16 hours p.i.): 40.5 ± 4.0 a.u. | Fluorescence intensity, Liver ([1]; 16 hours p.i.): 400.5 ± 34.1 a.u. | Fluorescence intensity, Lungs ([1]; 16 hours p.i.): 141.3 ± 21.5 a.u. | Fluorescence intensity, Muscle ([1]; 16 hours p.i.): 0.0 ± 0.0 a.u. | Fluorescence intensity, Pancreas ([1]; 16 hours p.i.): 70.3 ± 30.0 a.u. | Fluorescence intensity, S. Intest. ([1]; 16 hours p.i.): 83.8 ± 13.6 a.u. | Fluorescence intensity, Skin ([1]; 16 hours p.i.): 76.7 ± 20.4 a.u. | Fluorescence intensity, Spleen ([1]; 16 hours p.i.): 116.3 ± 25.0 a.u. | Fluorescence intensity, Stomach ([1]; 16 hours p.i.): 117.3 ± 33.1 a.u. | Fluorescence intensity, Tumor ([1]; 16 hours p.i.): 222.8 ± 11.0 a.u. | Fluorescence intensity, Bone ([1]; 26 hours p.i.): 42.8 ± 6.4 a.u. | Fluorescence intensity, Brain ([1]; 26 hours p.i.): 0.0 ± 0.0 a.u. | Fluorescence intensity, Heart ([1]; 26 hours p.i.): 61.3 ± 6.6 a.u. | Fluorescence intensity, Kidneys ([1]; 26 hours p.i.): 111.8 ± 7.9 a.u. | Fluorescence intensity, L. Intest. ([1]; 26 hours p.i.): 0.0 ± 0.0 a.u. | Fluorescence intensity, Liver ([1]; 26 hours p.i.): 213.1 ± 9.7 a.u. | Fluorescence intensity, Lungs ([1]; 26 hours p.i.): 64.2 ± 13.9 a.u. | Fluorescence intensity, Muscle ([1]; 26 hours p.i.): 8.6 ± 19.2 a.u. | Fluorescence intensity, Pancreas ([1]; 26 hours p.i.): 30.9 ± 17.9 a.u. | Fluorescence intensity, S. Intest. ([1]; 26 hours p.i.): 37.8 ± 4.7 a.u. | Fluorescence intensity, Skin ([1]; 26 hours p.i.): 25.1 ± 24.8 a.u. | Fluorescence intensity, Spleen ([1]; 26 hours p.i.): 48.0 ± 7.7 a.u. | Fluorescence intensity, Stomach ([1]; 26 hours p.i.): 59.1 ± 13.4 a.u. | Fluorescence intensity, Tumor ([1]; 26 hours p.i.): 182.6 ± 14.7 a.u. | time of maximum signal in liver ([1]; p.i.): 1 h | cytotoxic effect [2]: did not show any cytotoxic effect
